# Measurements from the DeepSol protein solubility set.
# Assay: soluble on expression in E. coli; label from the status in PepcDB or PDB records
row,Sequence,soluble on expression in E. coli
1,MGAASCEDEELEFKLVFGEEKEAPPLGAGGLGEELDSEDAPPCCRLALGEPPPYGAAPIGIPRPPPPRPGMHSPPPRPAPSPGTWESQPARSVRLGGPGGGAGGAGGGRVLECPSIRITSISPTPEPPAALEDNPDAWGDGSPRDYPPPEGFGGYREAGAQGGGAFFSPSPGSSSLSSWSFFSDASDEAALYAACDEVESELNEAASRFGLGSPLPSPRASPRPWTPEDPWSLYGPSPGGRGPEDSWLLLSAPGPTPASPRPASPCGKRRYSSSGTPSSASPALSRRGSLGEEGSEPPPPPPLPLARDPGSPGPFDYVGAPPAESIPQKTRRTSSEQAVALPRSEEPASCNGKLPLGAEESVAPPGGSRKEVAGMDYLAVPSPLAWSKARIGGHSPIFRTSALPPLDWPLPSQYEQLELRIEVQPRAHHRAHYETEGSRGAVKAAPGGHPVVKLLGYSEKPLTLQMFIGTADERNLRPHAFYQVHRITGKMVATASYEAVVSGTKVLEMTLLPENNMAANIDCAGILKLRNSDIELRKGETDIGRKNTRVRLVFRVHVPQGGGKVVSVQAASVPIECSQRSAQELPQVEAYSPSACSVRGGEELVLTGSNFLPDSKVVFIERGPDGKLQWEEEATVNRLQSNEVTLTLTVPEYSNKRVSRPVQVYFYVSNGRRKRSPTQSFRFLPVICKEEPLPDSSLRGFPSASATPFGTDMDFSPPRPPYPSYPHEDPACETPYLSEGFGYGMPPLYPQTGPPPSYRPGLRMFPETRGTT,soluble
2,MGAGMLGNINDIDLRMLRTFCAIVEAGGFTAAQARLNTSLSRLSVLVRDLEVRLGYSLCRRGNGGFQLTEEGQELYDAALGLFSDIARFREQVRGLGGRDREALHLGCVDGVIGQHCLPLPLAIRLFRQRAPEVLLKLHTRRPDELEHAVLEERLQLAVGAFHHRLSGLYYQPLFREEQNLYCGSAHPFFARADDEPTLGEICAADYVGRGYMAENHRPHDLRFNQGTDAYTMEAIATLVFSGTYIGYLPTHYAATWVAEGRMRAIRPRQLAYDSEFHCITRQGHEERPTLTLFLRSLFEAQKQLGVQVPANTNGIARQL,not soluble
3,MGARGKFDQFDDGKIKLASSLTSKAAANALQTIIEKYNIVKSGKDYPIEITQIAGGYDGGRTDLQTRVSVKDKTNFYNLILNYPDLVSVLARSGMELLFDKVNVDKLEPNFLKFNEQISGVAKSGNYGIPVSLSTDILVLNGPVLHYILNSAKKEEANSQVKSQIKTSQIQAKGSLTIDTDENTKSLWEKIQNSAKANGETNQKGRKAAKSNKTALVQLKNGADTTTNEENKDTKTSDDKVKQTWGDYVEKDDGLKNYTFRASVFENWHDFLDFSTRVAKSFTEKVSNITNKKGTDIQGVLGVDSSPNVLFASVFAAGGGNYENFFYKLKDGRADFSNFKNKGSSYQNLQSVFKDLEHHHHHH,not soluble
4,MGCMNRENALHIVKQQMHEKRYIHTIGVMETAIELAKLYGVDEKKAEMAAIFHDYAKCRAISEMEEIIKREDLPKDLLCYNKELWHAPVGAYLVEKEVGITDSEILQAITYHTSGHENMTMLDKVIYVADYIEPGRKFPGVEEARKLAYTDINQALLFALKRTIQFLMEKDQTIYPLTFQTYNAVIKEEMSK,not soluble
5,MGCTLSAEDKAAVERSKMIDRNLREDGERSRRELKLLLLGTGESGKSTFIKQMRIIHGSGYSDEDKRGFTKLVYQNIFTAMQAMIRAMDTLKIPYKYEHNKAHAQLVREVDVEKVSAFENPYVDAIKSLWNDPGIQECYDRRREYQLSDSTKYYLNDLDRVADPSYLPTQQDVLRVRVPTTGIIEYPFDLQSVIFRMVDVGGQRSERRKWIHCFENVTSIMFLVALSEYDQVLVESDNENRMEESKALFRTIITYPWFQNSSVILFLNKKDLLEEKIMYSHLVDYFPEYDGPQRDAQAAREFILKMFVDLNPDSDKIIYSHFTCATDTENIRFVFAAVKDTILQLNLKEYNLV,soluble
6,MGDELHVIVARSVNVTHKEPPVVPDEQRREMVGALKPVDEAHLGHSEDIFIPIERIEPDIIALGYDQHHDDEQLEAALSARGIDCDICRASPLETEAADRVLSTGRIIDRILDERS,not soluble
7,MGDKQFAVIGLGRFGLAVCKELQDSGSQVLAVDINEDRVKEAAGFVSQAIVANCTHEETVAELKLDDYDMVMIAIGADVNASILATLIAKEAGVKSVWVKANDRFQARVLQKIGADHIIMPERDMGIRVARKMLDKRVLEFHPLGSGLAMTEFVVGSRLMGKTLSDLALCKVEGVQVLGFKRGPEIIKAPDMSTTLEIGDLIIVVGPQDKLANKLKSLEHHHHHH,soluble
8,MGDVAGMAYLDSMSNEKVWFGYTLKEAQAQQIGLGLDLKGGMNVILKLNASDLLRNLSNKSLDPNFNKALENAAKSTEQSDFIDIFVKEYRKLDPNGRLAVIFGSGDLRDQITAKSTDADVVRLLKEKYNSAVEASFNVLRARIDAFGVVAPNLQRLEGQGRILVELPGVKDPERVRTLLQRSANLQFWRTYKFEEVSGDLIAANDRLSELAMNNTDATPETEPATTDSVAATADSAAVQAVADSATVAQKEAKDATRKDALFSLLTPVNRGGAVVGVARRANMAQISEMLQQAHDLKVTREDVLFLWGAKAIEDPETKKETDLYELYAIRTNRTGDPDLGGDVVTSAKSDIQNDFGRSEPIVSMTMNEEGARKWARITKDNVGRAIAIVLDGVVYSAPNVNDEITGGRSQISGHFTVEEAGDLANVLNSGKMDATVSIEQENVIGPTLGAESIKA,not soluble
9,MGEAETPSFEMTWSSTTSSGYCSQEDSDSELEQYFTARTSLVRRPRRDQDEAVERETPDLSQAETEQKIKDYNGQINSNLFMSLNKDGSYTGFIKVQLKLVRPVSVPSSKKPPSLQDARRGTGRSTAVKRRTSFYLPKDAIKHLHVLSRTRAREVIEALLRKFMVVDDPRKFALFERTERHGQVYLRKLSDDEQPLKLRLLAGPSEKALSFVLKENDSGEVNWDAFSMPELHNFLRILQREEEEHLRQILQKYSRCRQKIQEALHACPLG,soluble
10,MGEEFEKLMKKFENVNKDGEIVEDEDEWEEFFKQEEYVKIPKDRIAVLIGKKGQTKKEIEKRTKTKITIDSETGEVWITSTKETEDPLAVWKARDIVLAIGRGFSPERAFRLLNEGEYLEIINLTDIIIGNEKNALPRVRGRIIGRKGRTRQIIEEMSGASVSVYGKTVAIIGNPIQIEIAKTAIEKLARGSPHGSVYRYLERRKKDLELEGAMYYENL,soluble
11,MGERADTFLAHFNRIEKWMRERLNNPVNMGFSEMTRRLSRKEKGQIAQFEEDLLQMAQLRNAIVHERIADDFVIAEPNEWAVQRIETIEQALTKPEKVVPKFAKRVTAFEITTSLETLLTIIAKKQYSQFPIYEKGVFKGLITVRGIGVWFAIESTKGEVHIANRTVRELLASNYKRSNYQFVSIEATVFEVEQMFREQPRLEAVLISKSGHPNGELVGIVRPRDLASIHREKE,not soluble
12,MGESSGGGNSRQLQFSRKAGKGVVKTIHEYRSKPLRVGRKGEWRPAISDENRKLIRGVAEIIKIRPINVPDYAVVNPLGIMRQAYGTMVGGIANEPWSLESRKTIEEVVFLPIMDGEVRKGQLEHHHHHH,not soluble
13,MGEVFKMDGLASTILEVHKPAKLEDIPDEDPIAIILALKWLEYLCERAGVENVSDILDFYYMLGWLGDKALAKLLKFLKGIKVDEENVVEGSGKLNITDHIISLLFIERLNGKKISAELLDKIEWELRKIKKGAEQFYGI,not soluble
14,MGEYIRYQGEEALGLIETLGMVPAIYGADSMLKAANVQLISYENVGSTLVTVMVKGDVAAVQASVDAGSVAAAGIGKLTAHNVMPRPIRPIGDIVSVHAITDDAPAGDGSRPRAMGLIETFGIVYVLEAADAMLKTADVELIGYENVASGYISVLVQGDVAACQAAVAAGVKAVQAMGTDVYSSVVIPTPHPDVAKITARYALENLLP,not soluble
15,MGFFDSGIGGMTVLYEAIKVLPYEDYIFYADTLNVPYGEKSKGKVKEYIFNAAEFLASQNIKALVIACNTATSIAIEDLRRNFDFPIIGIEPAVKPAINKCTEERKRVLVVATNLTLKEEKFHNLVKEIDHHDLVDCLALPGLVEFAENFDFSEDKIIKYLKNELSSFDLKQYGTIVLGCTHFPFFKNSFEKLFGIKVDMISGSVGTAKQLKKVLADRNQLGKGSGSITFFNSGHKIVDQEVISKYKRLFEILDETQRSHVGH,not soluble
16,MGFGIGDLFWIFLLLTSLQPLWQKRQIEYRRLRALQEFQQERKSRVILLIHRQESISFLGIPISRYITIEDSEQILRAIRLTPPDVPIDLILHTPGGLVLATEQIARALIRHQAKVTVFVPHYAMSGGTMLALASDEIIMDANAVLGPVDPQLGNYPAASILKVIEDKPISEIDDQTLIMADLSRKAIGQVQRFVRTLLKDSIPKQKVLPENIESIIEALTTGRVTHDYPITIEEATEMGLPVTVGLPHSIYDLMDLYPQAQGGRPSVQYIPMPYNDPRPIL,not soluble
17,MGFKCGIVGLPNVGKSTLFNALTKAGIEAANYPFCTIEPNTGVVPMPDPRLDALAEIVKPERILPTTMEFVDIAGLVAGASKGEGLGNKFLANIRETDAIGHVVRCFENDDIVHVAGKIDPLDDIDTINTELALADLDSCERAIQRLQKRAKGGDKEAKFELSVMEKILPVLENAGMIRSVGLDKEELQAIKSYNFLTLKPTMYIANVNEDGFENNPYLDRVREIAAKEGAVVVPVCAAIESEIAELDDEEKVEFLQDLGIEEPGLNRVIRAGYALLNLQTYFTAGVKEVRAWTVSVGATAPKAAAVIHTDFEKGFIRAEVIAYEDFIQFNGENGAKEAGKWRLEGKDYIVQDGDVMHFRFNV,soluble
18,MGFVDRGGGREAKGASLRRSKNNPGASIAKNKSAKKDYTTPATRATPTPPPACLPVLKALMAAASAGATAMEATAASTVTDFEKALAAVRDAAQTGGSPYIDAAVALLSRKLEEDREGIFRRAAEEGKLAAVVCWCGEAERQSLLLNTCVQHNKLYRGTLEQQQRSSATGGGARHVHFNVDGAVVASVAAAVTTSSSSTKASILLYAVLGIHVNSIDRVNMRLHDQWVKELEANVKHSDVVGVLTGLNLSREHGTHYAQERLFKECWRVAAEVRLPLVLHLGAADAASLTETVNRAAKLLDELLAATSATADGAGAAPSAVVLHNGLRALHASTAMQQLVRAHRPAAGRTAAAVPFYVLATADGLAVAKTEGSETEVTATTDSGPSVEALAALLPPRAGLGSNSDSATTTSSGGDAAVHLSQLLIGTGAPWGTPQNLPDPYLCTLPNEPGNYAYVVQTLYDAMRAPPPPPTAAAAAAELTLADLSAIAAVNYLLAFFHECVWEQEQQQQQQRSGSDDETTADALQQQQRRWVESQQPVVVAGLADSDVKRDLEALLAEAAKERERMEQERLREEAGLAQARSEELQQKRSRRERKKNVKANNRSNFTHFRNKDFAPRQSKQEKPAHLREVVGIREGGSTDVDGRERTPSSSSAASDSGSAGGPNSLAAQVERLLKANAAHRDPECRAQRQPAGRGKGRGQNALAGSRKVGRSADMKSSEQPQQQYGAGAGGKAENGSPSDGSDDDDERYTRTRAL,not soluble
19,MGGAERVMATLANEFVKRGHQVRLVTLKKAVSAYELDKRVEFIGGGADINSGNFLIKRIQMISAVIKGTLFYRRQLREYKPDIILSFLTYTNLLSVINNRISRVKYPVVVSERCDPRKRSKLLIKLCNIVYPLADCIVCQSKVIQDYFLNKNPKSVTKVIPNPVNEECINKEEIIKRRKLIVAVGRLSNQKNYDLLIDAFSDIANEYSEYRLEIYGEGPERERLQKKINRLGLNDRIQLMGTKTNVMKHIADAQLFVMSSNFEGFPNALAEAMASGLPVISTNFPSGVAKELIIDGENGYVVDINNREQMADAMRKILGDPLTITKMSKNNVLLREKLNVKTVANMWENLFNDILEKRTKNEKN,not soluble
20,MGGFGVGKTTLVRSVSEIRPLNTEEVMTQAGVGVDETGGVTSKTTTTVAFDFGRISLNDRMVLYLFGAPGQERFWFLWDRLFSGTLGAVVLVDTRRMDDSWYAIDRLEHHRTPFVVAVNRFDDDTARHSLDEIRLALALPDHVPLIDCDARVRTSGKHVLVTLVDHLYQLALAQESASLEHHHHHH,not soluble
